{"source": "patent US10961297", "about": "(SANFORD BURNHAM PREBYS MEDICAL DISCOVERY INSTITUTE, dated 2021)", "molecules": {"B1": {"name": "LIGHT (ligand)", "chain": "DGPAGSWEQLIQERRSHEVNPAAHLTGANSSLTGSGGPLLWETQLGLAFLRGLSYHDGALVVTKAGYYYIYSKVQLGGVGCPLGLASTITHGLYKRTPRYPEELELLVSQQSPCGRATSSSRVWWDSSFLGGVVHLEAGEKVVVRVLDERLVRLRDGTRSYFGAFMV", "notes": "also called TNFSF ligand LIGHT"}, "B2": {"name": "human HVEM-Fc (Fc fusion)", "chain": "LPSCKEDEYPVGSECCPKCSPGYRVKEACGELTGTVCEPCPPGTYIAHLNGLSKCLQCQMCDPAMGLRASRNCSRTENAVCGCSPGHFCIVQDGDHCAACRAYATSSPGQRVQKGGTESQDTLCQNCPPGTFSPNGTLEECQHQTK", "notes": "also called parental HVEM-Fc; not shown: human IgG Fc region"}, "B3": {"name": "HVEM-RTWA (HVEM-Fc mutein with S58R, G68T, L70W and L90A) (Fc fusion)", "chain": "B2 chain with S20R, G30T, L32W, L52A", "notes": "also called RTWA mutant; HVEM^RTWA Fc; not shown: human IgG Fc region"}, "B4": {"name": "CD160-Fc (Fc fusion)", "chain": "INITSSASQEGTRLNLICTVWHKKEEAEGFVVFLCKDRSGDCSPETSLKQLRLKRDPGIDGVGEISSQLMFTISQVTPLHSGTYQCCARSQKSGIRLQGHFFSILFTETGNYTVTGLKQRQHLEFSHNEGTLS"}, "B5": {"name": "wild-type human HVEM on 293T cells (receptor)", "chain": "LPSCKEDEYPVGSECCPKCSPGYRVKEACGELTGTVCEPCPPGTYIAHLNGLSKCLQCQMCDPAMGLRASRNCSRTENAVCGCSPGHFCIVQDGDHCAACRAYATSSPGQRVQKGGTESQDTLCQNCPPGTFSPNGTLEECQHQTKCSWLVTKAGAGTSSSHWVWWFLSGSLVIVIVCSTVGLIICVKRRKPRGDVVKVIVSVQRKRQEAEGEATVIEALQAPPDVTTVAVEETIPSFTGRSPNH", "notes": "also called TNFRSF14"}}, "key": {"human BTLA-Fc (human) [1]": {"target": "human BTLA-Fc (human) (UniProt Q7Z6A9)", "sequence (Q7Z6A9 26-150 limits assumed)": "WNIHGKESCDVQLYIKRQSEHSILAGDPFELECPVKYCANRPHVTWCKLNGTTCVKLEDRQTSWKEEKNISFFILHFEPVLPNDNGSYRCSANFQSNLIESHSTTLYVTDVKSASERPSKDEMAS", "test": "SPR, human BTLA-Fc immobilised, Fc fusion as analyte, monovalent (1:1) analysis"}, "human BTLA-Fc (human) [2]": {"target": "human BTLA-Fc (human) (UniProt Q7Z6A9)", "test": "SPR, human BTLA-Fc immobilised, Fc fusion as analyte, monovalent analysis"}, "human BTLA-Fc (human) [3]": {"target": "human BTLA-Fc (human) (UniProt Q7Z6A9)", "test": "SPR, human BTLA-Fc immobilised, Fc fusion as analyte, bivalent analysis"}, "[4]": {"target": "T1, human HVEM T82P mutant on 293T cells (human, UniProt Q92956 39-283)", "T1 construct": "also called Thr^82", "T1 sequence": "B5 chain with T44P", "test": "flow cytometry, LIGHT on 293T cells with mutant HVEM"}, "[5]": {"target": "T2, human HVEM G60D mutant on 293T cells (human, UniProt Q92956 39-283)", "T2 construct": "also called Gly^60", "T2 sequence": "B5 chain with G22D", "test": "flow cytometry, LIGHT on 293T cells with mutant HVEM"}, "[6]": {"target": "T3, human BTLA P59A mutant on EL4 cells (human, UniProt Q7Z6A9 31-289)", "T3 construct": "whole, on cells; also called Pro59", "test": "flow cytometry, EL4 cells transduced with mutant human BTLA, HVEM-Fc then anti-human Fc [panel B]"}, "[7]": {"target": "T4, human BTLA R42D mutant on EL4 cells (human, UniProt Q7Z6A9 31-289)", "T4 construct": "whole, on cells; also called Arg42", "test": "flow cytometry, EL4 cells transduced with mutant human BTLA, HVEM-Fc then anti-human Fc [panel B]"}, "[8]": {"target": "T5, human BTLA H127D mutant on EL4 cells (human, UniProt Q7Z6A9 31-289)", "T5 construct": "whole, on cells; also called His127", "test": "flow cytometry, EL4 cells transduced with mutant human BTLA, HVEM-Fc then anti-human Fc [panel B]"}, "[9]": {"target": "T6, human BTLA Q37A mutant on EL4 cells (human, UniProt Q7Z6A9 31-289)", "T6 construct": "whole, on cells; also called Gln37", "test": "flow cytometry, EL4 cells transduced with mutant human BTLA, HVEM-Fc then anti-human Fc [panel B]"}, "[10]": {"target": "T7, BTLA (form in the assay not stated) (UniProt Q7Z6A9 31-157)", "T7 sequence": "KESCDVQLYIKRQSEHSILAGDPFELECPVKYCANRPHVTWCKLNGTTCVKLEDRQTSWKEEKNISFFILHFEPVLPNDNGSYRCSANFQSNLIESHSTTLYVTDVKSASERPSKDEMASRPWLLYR", "test": "not told"}, "[11]": {"target": "T8, human HVEM Y61C mutant on 293T cells (human, UniProt Q92956 39-283)", "T8 construct": "also called Tyr^61", "T8 sequence": "B5 chain with Y23C", "test": "flow cytometry, CD160-Fc on 293T cells with mutant HVEM"}, "[12]": {"target": "T1, human HVEM T82P mutant on 293T cells", "test": "flow cytometry, CD160-Fc on 293T cells with mutant HVEM"}, "[13]": {"target": "T9, human HVEM G72D mutant on 293T cells (human, UniProt Q92956 39-283)", "T9 construct": "also called Gly^72", "T9 sequence": "B5 chain with G34D", "test": "flow cytometry, CD160-Fc on 293T cells with mutant HVEM"}, "[14]": {"target": "T10, human HVEM R109W mutant on 293T cells (human, UniProt Q92956 39-283)", "T10 construct": "also called Arg^109", "T10 sequence": "B5 chain with R71W", "test": "flow cytometry, CD160-Fc on 293T cells with mutant HVEM"}, "[15]": {"target": "T11, human HVEM A102P mutant on 293T cells (human, UniProt Q92956 39-283)", "T11 construct": "also called Ala^102", "T11 sequence": "B5 chain with A64P", "test": "flow cytometry, CD160-Fc on 293T cells with mutant HVEM"}, "[16]": {"target": "T2, human HVEM G60D mutant on 293T cells", "test": "flow cytometry, CD160-Fc on 293T cells with mutant HVEM"}, "[17]": {"target": "T12, human HVEM P59S mutant on 293T cells (human, UniProt Q92956 39-283)", "T12 construct": "also called Pro^59", "T12 sequence": "B5 chain with P21S", "test": "flow cytometry, CD160-Fc on 293T cells with mutant HVEM"}, "[18]": {"target": "T13, wild-type human BTLA on cells (human, UniProt Q7Z6A9 31-289)", "T13 construct": "whole, on cells", "test": "co-expression on 293T cells, loss of staining by Fc ligands in trans"}}, "note": "Numbering of substitutions follows the chain as printed. Names may count otherwise.", "data": [{"molecule": "human HVEM-Fc (from UniProt Q92956 39-184) (Fc fusion)", "values": [{"measurement": "Kd", "setting": "human BTLA-Fc (human) [1]", "value": 177, "unit": "nM"}, {"measurement": "koff", "setting": "human BTLA-Fc (human) [2]", "value": 0.0066, "unit": "s⁻¹"}, {"measurement": "kon", "setting": "human BTLA-Fc (human) [2]", "value": 37400, "unit": "M⁻¹ s⁻¹"}, {"measurement": "ka1", "setting": "human BTLA-Fc (human) [3]", "value": 15300, "unit": "M⁻¹ s⁻¹"}, {"measurement": "ka2", "setting": "human BTLA-Fc (human) [3]", "value": 0.0573, "unit": "M⁻¹ s⁻¹"}, {"measurement": "kd1", "setting": "human BTLA-Fc (human) [3]", "value": 0.00902, "unit": "s⁻¹"}, {"measurement": "kd2", "setting": "human BTLA-Fc (human) [3]", "value": 2.05, "unit": "s⁻¹"}]}, {"molecule": "human CMV UL144-Fc (Fc fusion)", "values": [{"measurement": "Kd", "setting": "human BTLA-Fc (human) [1]", "value": 295, "unit": "nM"}, {"measurement": "koff", "setting": "human BTLA-Fc (human) [2]", "value": 0.00476, "unit": "s⁻¹"}, {"measurement": "kon", "setting": "human BTLA-Fc (human) [2]", "value": 16100, "unit": "M⁻¹ s⁻¹"}, {"measurement": "ka1", "setting": "human BTLA-Fc (human) [3]", "value": 7810, "unit": "M⁻¹ s⁻¹"}, {"measurement": "ka2", "setting": "human BTLA-Fc (human) [3]", "value": "1.39e-05"}, {"measurement": "kd1", "setting": "human BTLA-Fc (human) [3]", "value": 0.0051, "unit": "s⁻¹"}, {"measurement": "kd2", "setting": "human BTLA-Fc (human) [3]", "value": 0.00289, "unit": "s⁻¹"}]}, {"molecule": "B1", "values": [{"measurement": "binding result", "setting": "[4]", "value": "no binding"}, {"measurement": "binding result", "setting": "[5]", "value": "no binding"}]}, {"molecule": "B2", "values": [{"measurement": "binding result", "setting": "[6]", "value": "no binding"}, {"measurement": "binding result", "setting": "[7]", "value": "no binding"}, {"measurement": "binding result", "setting": "[8]", "value": "no binding"}, {"measurement": "binding result", "setting": "[9]", "value": "no binding"}]}, {"molecule": "B3", "values": [{"measurement": "fold enhancement of BTLA affinity (against HVEM-RA)", "setting": "[10]", "value": 10, "unit": "fold"}]}, {"molecule": "B4", "values": [{"measurement": "binding result", "setting": "[11]", "value": "no binding"}, {"measurement": "binding result", "setting": "[12]", "value": "no binding"}, {"measurement": "binding result", "setting": "[13]", "value": "no binding"}, {"measurement": "binding result", "setting": "[14]", "value": "no binding"}, {"measurement": "binding result", "setting": "[15]", "value": "no binding"}, {"measurement": "binding result", "setting": "[16]", "value": "no binding"}, {"measurement": "binding result", "setting": "[17]", "value": "no binding"}]}, {"molecule": "B5", "values": [{"measurement": "binding result", "setting": "[18]", "value": "binds"}]}]}
